Measured values taken from the Human Domainome abundance scans (Beltran et al. 2025).
± gives the uncertainty stated by the source.

B1: Gamma-crystallin C, residues 4 to 79; numbered along this chain, P07315 (parent)
chain: ITFYEDRAFQGRSYETTTDCPNLQPYFSRCNSIRVESGCWMLYERPNYQGQQYLLRRGEYPDYQQWMGLSDSIRSC

Variants of: B1
Experiment: abundance fitness (aPCA) (normalised: wild type 0, dead -1); higher = more abundant; growth selection in yeast, the domain comes from the species named
Settings: Homo sapiens

Abundance fitness, by site and new letter:
Y63: I -0.028 ± 0.099, Q -0.12 ± 0.093, L -0.097 ± 0.076, S -0.06 ± 0.083, R -0.049 ± 0.05, T -0.113 ± 0.086, W -0.126 ± 0.073, P 0.094 ± 0.092, V -0.103 ± 0.054, M -0.12 ± 0.062, N -0.088 ± 0.21
G68: L -0.027 ± 0.048, Y 0.097 ± 0.089, C 0.117 ± 0.083, W 0.003 ± 0.08, P -0.02 ± 0.069, R 0.079 ± 0.043, S 0.014 ± 0.052, N -0.053 ± 0.14, E -0.062 ± 0.12, V 0.007 ± 0.065, K 0.028 ± 0.088, D -0.042 ± 0.13, Q -0.018 ± 0.083, A 0.003 ± 0.073, T 0.068 ± 0.076
L69: C 0.07 ± 0.12, M -0.163 ± 0.1, T 0.047 ± 0.085, I -0.23 ± 0.26, K -0.104 ± 0.091, S -0.153 ± 0.076, H -0.045 ± 0.099, G -0.028 ± 0.041, R -0.021 ± 0.048, P -0.07 ± 0.12, Q 0.08 ± 0.12, E 0.017 ± 0.075, Y -0.001 ± 0.18, F 0.147 ± 0.12, W 0.098 ± 0.081, V 0.02 ± 0.058, N -0.045 ± 0.18
M67: A -0.03 ± 0.057, N -0.065 ± 0.17, L -0.011 ± 0.053, R -0.005 ± 0.072, G -0.113 ± 0.06, F -0.091 ± 0.093, H -0.01 ± 0.25, D -0.106 ± 0.15, K -0.043 ± 0.15, W 0.044 ± 0.087, C -0.173 ± 0.12, Y -0.067 ± 0.096, T -0.018 ± 0.077, P -0.057 ± 0.069, V 0.008 ± 0.073, S -0.057 ± 0.11, Q -0.042 ± 0.15, E -0.131 ± 0.081
Q65: S -0.042 ± 0.064, L -0.088 ± 0.064, Y 0.029 ± 0.13, K -0.175 ± 0.22, C 0 ± 0.11, D -0.019 ± 0.085, A 0.006 ± 0.068, V -0.041 ± 0.09, P 0.027 ± 0.1, N 0.014 ± 0.14, I -0.133 ± 0.15, W -0.119 ± 0.062, H -0.065 ± 0.089, M 0.015 ± 0.24, T -0.089 ± 0.057, E 0.052 ± 0.073, R -0.036 ± 0.057, F -0.253 ± 0.13
D71: F -0.132 ± 0.16, E 0.027 ± 0.086, K 0.094 ± 0.11, C -0.017 ± 0.11, V -0.004 ± 0.059, N -0.007 ± 0.12, P -0.135 ± 0.071, R -0.011 ± 0.066, I -0.106 ± 0.1, T -0.059 ± 0.12, H -0.092 ± 0.1, Y -0.027 ± 0.081, Q -0.121 ± 0.14, W -0.02 ± 0.14, S -0.056 ± 0.055, L 0.021 ± 0.068, M -0.133 ± 0.075
W66: D -0.12 ± 0.12, N 0.091 ± 0.15, Q 0.046 ± 0.17, M -0.093 ± 0.14, V 0.018 ± 0.077, Y 0.069 ± 0.12, A 0.039 ± 0.078, L -0.082 ± 0.074, F -0.009 ± 0.11, C -0.168 ± 0.13, T 0.021 ± 0.083, I -0.006 ± 0.11, K -0.023 ± 0.095, P 0.005 ± 0.1, H -0.01 ± 0.18, E 0.068 ± 0.098, G 0.059 ± 0.046
I73: E -0.655 ± 0.2, D -0.861 ± 0.23, C 0.047 ± 0.091, A 0.055 ± 0.053
Q64: S -0.188 ± 0.082, C 0.062 ± 0.096, F -0.09 ± 0.12, T -0.004 ± 0.092, M -0.101 ± 0.081, H 0.155 ± 0.19, K -0.042 ± 0.12, Y -0.182 ± 0.14, E 0.024 ± 0.083, G -0.045 ± 0.059, N 0.044 ± 0.082, W -0.021 ± 0.07, L -0.081 ± 0.06, V -0.022 ± 0.062, P -0.013 ± 0.085, A -0.08 ± 0.056, I -0.039 ± 0.12
S72: K 0.058 ± 0.13, L -0.052 ± 0.072, F 0.119 ± 0.084, Y 0.01 ± 0.11, I 0.007 ± 0.17, G 0.022 ± 0.054, D -0.21 ± 0.3, H -0.172 ± 0.17, A -0.136 ± 0.081, T -0.145 ± 0.088, C -0.082 ± 0.13, P -0.025 ± 0.14, V -0.012 ± 0.077, R 0.01 ± 0.07, M 0.019 ± 0.11
S70: C 0.101 ± 0.16, L -0.047 ± 0.049, G -0.007 ± 0.055, M -0.132 ± 0.097, H -0.181 ± 0.15, W 0.048 ± 0.068, K -0.114 ± 0.17, D -0.074 ± 0.12, T -0.072 ± 0.075, Y 0.047 ± 0.096, N -0.021 ± 0.11, F -0.053 ± 0.079, Q -0.077 ± 0.15, A 0.02 ± 0.05, I 0.09 ± 0.11, V 0.075 ± 0.048, R -0.064 ± 0.067, P 0.082 ± 0.084
